Source: patent publication US20160200791A1 (Novo Nordisk, published 2016)
Numbered stars: 1 amine (or outer) side, 2 acyl side, 3 side chain; on linkers, the order of the positions; unused ones are H or OH. Square brackets hold non-standard residues; d marks the D form. Side chains are listed from the residue outwards. Ends that are not written are not given here. * marks the point of attachment. Hexadecanoyl(16-SO3H) = O=C(CCCCCCCCCCCCCCCS(=O)(=O)O)*; C20 diacid = O=C(O)CCCCCCCCCCCCCCCCCCC(=O)*; C18 diacid = O=C(O)CCCCCCCCCCCCCCCCC(=O)*; γGlu = O=C(O)[C@H](CCC(=O)[*:2])N[*:1]; εLys = N[C@@H](CCCCN[*:1])C(=O)[*:2]; Cya = N[C@@H](CS(=O)(=O)O)C(=O)O; Trx = NC[C@H]1CC[C@H](C(=O)O)CC1; AEEA = NCCOCCOCC(=O)O; Aib = CC(C)(N)C(=O)O; Ahx = NCCCCCC(=O)O; GABA = NCCCC(=O)O

How the values were obtained:
[1] = target: T1, human GLP-1 receptor (human, UniProt P43220 24-463); assay: cell-based or functional assay
[2] = target: T1, human GLP-1 receptor; assay: competitive SPA binding, displacement of 125I-GLP-1(7-36)NH2 from BHK membranes with human GLP-1R, low HSA (max. 0.001%)
Protocol: (§1) For the receptor binding assay in the presence of low HSA (0.005%) 50 μl of the assay buffer was added to each well of an assay plate. Assay continued with step 3. […] For the receptor binding assay in the presence of high HSA (2%) 50 μl of the 8% albumin stock was added to each well of an assay plate. Assay continued with step 3. […] Cell membrane aliquots were thawed and diluted to their working concentration. Fifty μl were added to each well in the assay plate. […] WGA SPA beads were suspended in assay buffer at 20 mg/ml. The suspension was diluted to 10 mg/ml in assay buffer just prior to addition to the assay plate. Fifty μl were added to each well in the assay plate. […] A 25 μl aliquot was reserved for measuring total counts/well. […] The assay plate was incubated for 2 h at 30° C. […] The assay plate was centrifuged for 10 min. […] The assay plate was read in a Packard TopCount NXT instrument.

[3] = target: T1, human GLP-1 receptor; assay: competitive SPA binding, displacement of 125I-GLP-1(7-36)NH2 from BHK membranes with human GLP-1R, high HSA (2.0%)
Protocol: as §1

Binder | In vitro potency EC50 (CRE luciferase reporter gene assay, BHK cells) [1] | IC50 [2] | IC50 [3]
H[Aib]EGTFTSDVSK([AEEA-AEEA-AEEA-AEEA-AEEA-εLys-εLys-C18 diacid])YLEK([AEEA-AEEA-AEEA-AEEA-AEEA-εLys-εLys-C18 diacid])QAAREFIK([AEEA-AEEA-AEEA-AEEA-AEEA-εLys-εLys-C18 diacid])WLVRGRG (Full chemical name printed at h-0082) | 0.014 nM | 0.4 nM | 381 nM
H[Aib]EGTFTSDVSK([AEEA-AEEA-εLys-Hexadecanoyl(16-SO3H)])YLEK([AEEA-AEEA-εLys-Hexadecanoyl(16-SO3H)])QAAREFIK([AEEA-AEEA-εLys-Hexadecanoyl(16-SO3H)])WLVRGRG (Full chemical name printed at h-0076) | 0.026 nM | 0.23 nM | 84 nM
H[Aib]EGTFTSDVSK([AEEA-AEEA-Cya-Trx-Hexadecanoyl(16-SO3H)])YLEK([AEEA-AEEA-Cya-Trx-Hexadecanoyl(16-SO3H)])QAAREFIK([AEEA-AEEA-Cya-Trx-Hexadecanoyl(16-SO3H)])WLVRGRG (Full chemical name printed at h-0058 (it prints 'Lys8' where Lys18 is meant)) | 0.014 nM | 1.6 nM | 351 nM
H[Aib]EGTFTSDVSK([AEEA-AEEA-AEEA-AEEA-εLys-εLys-GABA-Hexadecanoyl(16-SO3H)])YLEK([AEEA-AEEA-AEEA-AEEA-εLys-εLys-GABA-Hexadecanoyl(16-SO3H)])QAAREFIK([AEEA-AEEA-AEEA-AEEA-εLys-εLys-GABA-Hexadecanoyl(16-SO3H)])WLVRGRG (Full chemical name printed at h-0086) | 0.116 nM | 0.1 nM | 19 nM
H[Aib]EGTFTSDVSK([AEEA-AEEA-AEEA-AEEA-AEEA-εLys-εLys-εLys-C18 diacid])YLEK([AEEA-AEEA-AEEA-AEEA-AEEA-εLys-εLys-εLys-C18 diacid])QAAREFIK([AEEA-AEEA-AEEA-AEEA-AEEA-εLys-εLys-εLys-C18 diacid])WLVRGRG (Full chemical name printed at h-0084) | 0.018 nM | 0.08 nM | 143 nM
H[Aib]EGTFTSDVSK([AEEA-γGlu-AEEA-C18 diacid])YLEEQAARK([AEEA-γGlu-AEEA-C18 diacid])FIAWLVRGRK([AEEA-γGlu-AEEA-C18 diacid]) (Full chemical name printed at h-0064) | 0.076 nM | 0.7 nM | > 1000 nM
H[Aib]EGTFTSDVSK([AEEA-AEEA-Cya-Hexadecanoyl(16-SO3H)])YLEK([AEEA-AEEA-Cya-Hexadecanoyl(16-SO3H)])QAAREFIK([AEEA-AEEA-Cya-Hexadecanoyl(16-SO3H)])WLVRGRG (Full chemical name printed at h-0054) | 0.02 nM | 1.4 nM | 290 nM
H[Aib]EGTFTSDVSK([εLys-AEEA-AEEA-γGlu-C18 diacid])YLEEQAARK([εLys-AEEA-AEEA-γGlu-C18 diacid])FIAWLVRGRK([εLys-AEEA-AEEA-γGlu-C18 diacid]) (Full chemical name printed at h-0062 (it prints 'Lys8' where Lys18 is meant)) | 0.012 nM | 0.4 nM | > 1000 nM
H[Aib]EGTFTSDVSK([AEEA-AEEA-AEEA-AEEA-AEEA-εLys-εLys-Ahx-Hexadecanoyl(16-SO3H)])YLEK([AEEA-AEEA-AEEA-AEEA-AEEA-εLys-εLys-Ahx-Hexadecanoyl(16-SO3H)])QAAREFIK([AEEA-AEEA-AEEA-AEEA-AEEA-εLys-εLys-Ahx-Hexadecanoyl(16-SO3H)])WLVRGRG (Full chemical name printed at h-0090) | 0.027 nM | 0.36 nM | 100 nM
H[Aib]EGTFTSDVSK([AEEA-AEEA-γGlu-C18 diacid])YLEEQAARK([AEEA-AEEA-γGlu-C18 diacid])FIAWLVRGRK([AEEA-AEEA-γGlu-C18 diacid]) (Full chemical name printed at h-0060) | 0.04 nM | 0.6 nM | > 1000 nM
H[Aib]EGTFTSDVSK([Ser-Ser-Ser-Ser-Ser-Ser-γGlu-C18 diacid])YLEGQAARK([Ser-Ser-Ser-Ser-Ser-Ser-γGlu-C18 diacid])FIAWLVRGRK([Ser-Ser-Ser-Ser-Ser-Ser-γGlu-C18 diacid]) (Full chemical name printed at h-0068) | 0.067 nM | – | > 1000 nM
H[Aib]EGTFTSDVSSYLEEQAAK([εLys-AEEA-AEEA-γGlu-C18 diacid])EFIK([εLys-AEEA-AEEA-γGlu-C18 diacid])WLVRGRK([εLys-AEEA-AEEA-γGlu-C18 diacid]) (Full chemical name printed at h-0072) | 0.085 nM | 8.7 nM | > 1000 nM
H[Aib]EGTFTSDVSSYLEEQAAK([εLys-AEEA-AEEA-Cya-Hexadecanoyl(16-SO3H)])EFIK([εLys-AEEA-AEEA-Cya-Hexadecanoyl(16-SO3H)])WLVRGRK([εLys-AEEA-AEEA-Cya-Hexadecanoyl(16-SO3H)]) (Full chemical name printed at h-0074) | 0.099 nM | 5 nM | 214 nM
H[Aib]EGTFTSDVSSYLEEQAARK([AEEA-AEEA-γGlu-C18 diacid])FIK([AEEA-AEEA-γGlu-C18 diacid])WLVRGRK([AEEA-AEEA-γGlu-C18 diacid]) (Full chemical name printed at h-0070) | 0.026 nM | 0.82 nM | 188 nM
H[Aib]EGTFTSDVSK([AEEA-AEEA-AEEA-AEEA-AEEA-εLys-εLys-C20 diacid])YLEK([AEEA-AEEA-AEEA-AEEA-AEEA-εLys-εLys-C20 diacid])QAAREFIK([AEEA-AEEA-AEEA-AEEA-AEEA-εLys-εLys-C20 diacid])WLVRGRG (Full chemical name printed at h-0080) | 0.082 nM | 11 nM | 426 nM
H[Aib]EGTFTSDVSK([AEEA-AEEA-AEEA-AEEA-AEEA-εLys-εLys-GABA-Hexadecanoyl(16-SO3H)])YLEK([AEEA-AEEA-AEEA-AEEA-AEEA-εLys-εLys-GABA-Hexadecanoyl(16-SO3H)])QAAREFIK([AEEA-AEEA-AEEA-AEEA-AEEA-εLys-εLys-GABA-Hexadecanoyl(16-SO3H)])WLVRGRG (Full chemical name printed at h-0092) | 0.015 nM | 0.24 nM | 96 nM
H[Aib]EGTFTSDVSK([AEEA-AEEA-γGlu-Trx-Hexadecanoyl(16-SO3H)])YLEK([AEEA-AEEA-γGlu-Trx-Hexadecanoyl(16-SO3H)])QAAREFIK([AEEA-AEEA-γGlu-Trx-Hexadecanoyl(16-SO3H)])WLVRGRG (Full chemical name printed at h-0052) | 0.067 nM | 2.3 nM | 289 nM
H[Aib]EGTFTSDVSK([AEEA-AEEA-AEEA-AEEA-εLys-εLys-Ahx-Hexadecanoyl(16-SO3H)])YLEK([AEEA-AEEA-AEEA-AEEA-εLys-εLys-Ahx-Hexadecanoyl(16-SO3H)])QAAREFIK([AEEA-AEEA-AEEA-AEEA-εLys-εLys-Ahx-Hexadecanoyl(16-SO3H)])WLVRGRG (Full chemical name printed at h-0088; the printed name is uneven in the number of OEG units for the side chains at 18 and 22 (four opened, three closed)) | 0.019 nM | 0.15 nM | 49 nM
H[Aib]EGTFTSDVSK([AEEA-AEEA-εLys-εLys-Hexadecanoyl(16-SO3H)])YLEK([AEEA-AEEA-εLys-εLys-Hexadecanoyl(16-SO3H)])QAAREFIK([AEEA-AEEA-εLys-εLys-Hexadecanoyl(16-SO3H)])WLVRGRG (Full chemical name printed at h-0078) | 0.018 nM | 0.19 nM | 100 nM
